This note sets out measurements from US7435549 (MICROMET, dated 2008).

The target in assay [1] is T1, CD80-VD4.5VK8 scFv(VH/VL) construct with short (Gly4Ser1)1 linker (human, UniProt P33681 35-242).
T1 construct: extracellular domain; Tested as CHO culture supernatant; also called bifunctional CD80-VD4.5VK8-scFv-construct; pEF-DHFR+CTI+CD80+scFv VD4.5VK8
Description: flow cytometry on 17-1A-transfected CHO cells, anti-CD80 detection. The protocol: FIG. 9.1: Binding studies of 17-1A specific bifunctional CD80-scFv-constructs on 17-1A transfected (filled lines) and untransfected CHO cells (broken lines) detected by flow cytometry. 5 ×10^5 cells were incubated in 50 μl undiluted cell-culture supernatant containing the corresponding bifunctional construct. Bound bifunctional CD80-scFv-constructs were detected by a monoclonal anti-CD80 antibody (Immunotech. Cat. No.: 1449) diluted 1:20 in 50 μl PBS. Incubation conditions were the same as described in FIG. 8.5. Bound CD80-antibody was finally detected by a fluorescein conjugated polyclonal Goat Anti-Mouse IgG+IgM (H+L) antibody diluted 1:100 in PBS. Incubation was again carried out for 30 minutes on ice. For the fixation of fluorescein-labeled cells 1% paraformaldehyd in PBS was used. As first negative control untransfected CHO was used. […] Cells were analysed by flow cytometry on a FACS scan (Becton Dickenson).
For this purpose adherent untransfected and 17-1A-transfected CHO-cells were detached using PBS containing 0,05% Trypsine, respectively. […] Bound bifunctional CD80-scFv-constructs were detected by a monoclonal anti-CD80 antibody (Immunotech. Cat. No: 1449) diluted 1:20 in 50 µl PBS. […] Bound CD80-antibody was finally detected by a fluorescein conjugated polyclonal Goat Anti-Mouse IgG+IgM (H+L) antibody diluted 1:100 in PBS. […]
In general terms: Flow cytometry measures light scatter and fluorescence of single cells or particles in a stream.

Assay [2] has as its target T2, bifunctional CD80-anti-17-1A scFv construct, clone 5-3 (human, UniProt P33681 35-242).
T2 construct: extracellular domain; CHO culture supernatant; also called pEFDHFR+CTI+CD80+scFv anti 17-1A 5-3; CD80-scFv-construct 5-3
Description: flow cytometry on 17-1A-transfected CHO cells, undiluted supernatant, anti-CD80 detection. The procedure: (§1) FIG. 9.1: Binding studies of 17-1A specific bifunctional CD80-scFv-constructs on 17-1A transfected (filled lines) and untransfected CHO cells (broken lines) detected by flow cytometry. 5 ×10^5 cells were incubated in 50 μl undiluted cell-culture supernatant containing the corresponding bifunctional construct. Bound bifunctional CD80-scFv-constructs were detected by a monoclonal anti-CD80 antibody (Immunotech. Cat. No.: 1449) diluted 1:20 in 50 μl PBS. Incubation conditions were the same as described in FIG. 8.5. Bound CD80-antibody was finally detected by a fluorescein conjugated polyclonal Goat Anti-Mouse IgG+IgM (H+L) antibody diluted 1:100 in PBS. Incubation was again carried out for 30 minutes on ice. For the fixation of fluorescein-labeled cells 1% paraformaldehyd in PBS was used. As first negative control untransfected CHO was used. The second negative control contained 17-1A-transfected cells that were incubated with PBS instead of bifunctional CD80-scFv-constructs. Cells were analysed by flow cytometry on a FACS scan (Becton Dickenson).
(§2) For this purpose adherent untransfected and 17-1A-transfected CHO-cells were detached using PBS containing 0,05% Trypsine, respectively. 5 ×10^5 cells were incubated for 30 minutes on ice in 50 µl culture supernatant containing the corresponding bifunctional construct undiluted (FIG. 9.1). Bound bifunctional CD80-scFv-constructs were detected by a monoclonal anti-CD80 antibody (Immunotech. Cat. No: 1449) diluted 1:20 in 50 µl PBS. Incubation conditions were the same as above. Bound CD80-antibody was finally detected by a fluorescein conjugated polyclonal Goat Anti-Mouse IgG+IgM (H+L) antibody diluted 1:100 in PBS. Incubation was again carried out for 30 minutes on ice. For the fixation of fluorescein-labeled cells 1% paraformaldehyd in PBS was used.

In assay [3] the target is T3, bifunctional CD80-anti-17-1A scFv construct, clone 3-1 (human, UniProt P33681 35-242).
T3 construct: extracellular domain; CHO culture supernatant; also called pEF-DHFR+CTI+CD80+scFv 17-1A clone 3-1; CD80-scFv-construct 3-1
Described as above. The protocol: as §1, §2

Assay [4] addresses T4, bifunctional CD80-anti-17-1A scFv construct, clone 4-4 (human, UniProt P33681 35-242).
T4 construct: extracellular domain; CHO culture supernatant; also called pEF-DHFR+CTI+CD80+scFv 17-1A clone 4-4; CD80-scFv-construct 4-4
The description is as above. The procedure:
as §1, §2

Assay [5] has as its target T5, bifunctional CD80-anti-17-1A scFv construct, clone 5-10 (human, UniProt P33681 35-242).
T5 construct: extracellular domain; CHO culture supernatant; also called pEHDFR+CTI+CD80+scFv anti 17-1A 5-10; CD80-scFv-construct 5-10
The description is as above. The procedure: as §1, §2

Assay [6] addresses T6, bifunctional CD80-anti-17-1A scFv construct, clone 4-1 (human, UniProt P33681 35-242).
T6 construct: extracellular domain; CHO culture supernatant; also called pEF-DHFR+CTI+CD80+scFv 17-1A clone 4-1; CD80-scFv-construct 4-1
The assay is described as above. The procedure: as §1, §2

Assay [7] addresses T7, bifunctional CD80-anti-17-1A scFv construct, clone 3-5 (human, UniProt P33681 35-242).
T7 construct: extracellular domain; CHO culture supernatant; also called pEF-DHFR+CTI+CD80+scFv 17-1A clone 3-5; CD80-scFv-construct 3-5
The description is as above. The procedure:
as §1, §2

In assay [8] the target is T8, bifunctional CD80-anti-17-1A scFv construct, clone 5-13 (human, UniProt P33681 35-242).
T8 construct: extracellular domain; CHO culture supernatant; also called pEF-DHFR+CTI+CD80+scFv 17-1A clone 5-13; CD80-scFv-construct 5-13
Described as above. The procedure:
as §1, §2

Assay [9] addresses T9, bifunctional CD80-anti-17-1A scFv construct, clone 4-7 (human, UniProt P33681 35-242).
T9 construct: extracellular domain; CHO culture supernatant; also called pEFDHFR+CTI+CD80+scFv anti 17-1A 4-7; CD80-scFv-construct 4-7
The assay is described as above. The protocol:
as §1, §2

B1: transmembrane 17-1A antigen (complete amino acid sequence, GA733-2) on transfected CHO cells (other, UniProt P16422 24-314, looked up)
chain: QEECVCENYKLAVNCFVNNNRQCQCTSVGAQNTVICSKLAAKCLVMKAEMNGSKLGRRAKPEGALQNNDGLYDPDCDESGLFKAKQCNGTSMCWCVNTAGVRRTDKDTEITCSERVRTYWIIIELKHKAREKPYDSKSLRTALQKEITTRYQLDPKFITSILYENNVITIDLVQNSSQKTQNDVDIADVAYYFEKDVKGESLFHSKKMDLTVNGEQLDLDPGQTLIYYVDEKAPEFSMQGLKAGVIAVIVVVVIAVVAGIVVLVISRKKRMAKYEKAEIKEMGEMHRELNA
notes: whole, on cells; also called 17-1A-transfected CHO-cells
With B1, the binding result is listed as “no binding (tested: undiluted culture supernatant)” in assay [1]; “binds” in [2]; “binds” in [3]; “binds” in assay [4]; “binds” in assay [5]; “binds” in assay [6]. Further, the binding result in assay [7], in assay [8] and in [9] was “binds” each time.
